Experimental data: doi:10.1101/2022.09.09.507346 (bioRxiv, 2022)

T1: MBP-GLK2 fusion protein (Golden2-like transcription factor GLK2, full length) (Arabidopsis thaliana, UniProt Q9FFH0 1-386)
T1 sequence (looked up): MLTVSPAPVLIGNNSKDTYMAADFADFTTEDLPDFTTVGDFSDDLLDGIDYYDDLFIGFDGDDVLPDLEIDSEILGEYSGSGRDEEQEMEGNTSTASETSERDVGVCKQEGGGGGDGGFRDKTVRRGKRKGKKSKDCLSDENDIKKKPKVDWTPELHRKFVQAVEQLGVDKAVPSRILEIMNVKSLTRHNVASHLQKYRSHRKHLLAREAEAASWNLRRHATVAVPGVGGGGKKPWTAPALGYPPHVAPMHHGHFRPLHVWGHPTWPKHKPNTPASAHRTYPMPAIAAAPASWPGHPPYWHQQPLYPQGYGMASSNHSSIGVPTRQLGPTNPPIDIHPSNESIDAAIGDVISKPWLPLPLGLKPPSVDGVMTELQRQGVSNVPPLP

T2: MBP-GLK1 fusion protein (Golden2-like transcription factor GLK1, full length) (Arabidopsis thaliana, UniProt Q9SIV3 1-420)
T2 sequence (looked up): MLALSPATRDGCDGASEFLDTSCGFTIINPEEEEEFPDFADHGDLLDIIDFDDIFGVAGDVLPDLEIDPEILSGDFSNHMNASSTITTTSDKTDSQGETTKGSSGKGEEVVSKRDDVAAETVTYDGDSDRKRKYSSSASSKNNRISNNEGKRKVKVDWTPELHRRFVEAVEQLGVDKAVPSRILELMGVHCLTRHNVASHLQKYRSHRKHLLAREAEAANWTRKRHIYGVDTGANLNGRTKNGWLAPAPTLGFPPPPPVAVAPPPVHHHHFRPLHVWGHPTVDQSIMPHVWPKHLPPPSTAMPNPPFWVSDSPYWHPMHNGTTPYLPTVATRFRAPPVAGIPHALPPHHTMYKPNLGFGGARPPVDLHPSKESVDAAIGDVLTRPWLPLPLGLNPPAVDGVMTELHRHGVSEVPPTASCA


Assays:
[1] = molecular target: T1, MBP-GLK2 fusion protein (Golden2-like …); assay: pull-down
[2] = molecular target: T2, MBP-GLK1 fusion protein (Golden2-like …); assay: pull-down

Binder	binding result [1]	binding result [2]
GST-GBF3 fusion protein (G-box Binding Factor 3, full length) (natural protein, Arabidopsis thaliana, UniProt P42776 1-382, looked up) MGNSSEEPKPPTKSDKPSSPPVDQTNVHVYPDWAAMQAYYGPRVAMPPYYNSAMAASGHPPPPYMWNPQHMMSPYGAPYAAVYPHGGGVYAHPGIPMGSLPQGQKDPPLTTPGTLLSIDTPTKSTGNTDNGLMKKLKEFDGLAMSLGNGNPENGADEHKRSRNSSETDGSTDGSDGNTTGADEPKLKRSREGTPTKDGKQLVQASSFHSVSPSSGDTGVKLIQGSGAILSPGVSANSNPFMSQSLAMVPPETWLQNERELKRERRKQSNRESARRSRLRKQAETEELARKVEALTAENMALRSELNQLNEKSDKLRGANATLLDKLKCSEPEKRVPANMLSRVKNSGAGDKNKNQGDNDSNSTSKLHQLLDTKPRAKAVAAG	binds	binds
GST-GBF2 fusion protein (G-box Binding Factor 2, full length) (natural protein, Arabidopsis thaliana, UniProt P42775 1-360, looked up) MGSNEEGNPTNNSDKPSQAAAPEQSNVHVYHHDWAAMQAYYGPRVGIPQYYNSNLAPGHAPPPYMWASPSPMMAPYGAPYPPFCPPGGVYAHPGVQMGSQPQGPVSQSASGVTTPLTIDAPANSAGNSDHGFMKKLKEFDGLAMSISNNKVGSAEHSSSEHRSSQSSENDGSSNGSDGNTTGGEQSRRKRRQQRSPSTGERPSSQNSLPLRGENEKPDVTMGTPVMPTAMSFQNSAGMNGVPQPWNEKEVKREKRKQSNRESARRSRLRKQAETEQLSVKVDALVAENMSLRSKLGQLNNESEKLRLENEAILDQLKAQATGKTENLISRVDKNNSVSGSKTVQHQLLNASPITDPVAAS	binds	binds
GST-GBF1 fusion protein (G-box Binding Factor 1, full length) (natural protein, Arabidopsis thaliana, UniProt P42774 1-315, looked up) MGTSEDKMPFKTTKPTSSAQEVPPTPYPDWQNSMQAYYGGGGTPNPFFPSPVGSPSPHPYMWGAQHHMMPPYGTPVPYPAMYPPGAVYAHPSMPMPPNSGPTNKEPAKDQASGKKSKGNSKKKAEGGDKALSGSGNDGASHSDESVTAGSSDENDENANQQEQGSIRKPSFGQMLADASSQSTTGEIQGSVPMKPVAPGTNLNIGMDLWSSQAGVPVKDERELKRQKRKQSNRESARRSRLRKQAECEQLQQRVESLSNENQSLRDELQRLSSECDKLKSENNSIQDELQRVLGAEAVANLEQNAAGSKDGEGTN	binds	binds
